Reference: paper PMC6458997
Where a chain is given by its changes, count along the chain named.

Experiments:
[1] = target: T1, AimR N202A (SPbeta) (Bacillus subtilis phage SPbeta (cloned …, UniProt O31927 1-386, N202A)); test: EMSA; apo; WT probe assumed; EMSA: 50 mM HEPES pH 7.5, 5 mM MgCl2, 75 mM NaCl, 0.5 mM EDTA; 0.4 uM DNA, 4 uM AimR; 10 min at room temperature; 8% PAGE in TBE at 4 C or agarose in TAE at room temperature; conditions: protein: recombinant; tags: N-terminal 6xHis-TEV, cleaved (as WT); chain copies: 2
T1 sequence: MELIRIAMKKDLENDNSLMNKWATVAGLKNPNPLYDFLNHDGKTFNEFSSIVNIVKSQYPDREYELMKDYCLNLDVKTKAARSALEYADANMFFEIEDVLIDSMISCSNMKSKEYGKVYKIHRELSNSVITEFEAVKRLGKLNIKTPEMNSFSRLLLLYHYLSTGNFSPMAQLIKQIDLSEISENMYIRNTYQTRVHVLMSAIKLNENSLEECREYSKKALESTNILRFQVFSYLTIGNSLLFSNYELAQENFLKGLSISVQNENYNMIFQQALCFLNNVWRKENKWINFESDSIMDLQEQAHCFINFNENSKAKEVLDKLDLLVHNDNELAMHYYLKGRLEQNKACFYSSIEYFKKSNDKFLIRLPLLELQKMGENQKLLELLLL

[2] = target: T2, AimR D360A (SPbeta) (Bacillus subtilis phage SPbeta (cloned …, UniProt O31927 1-386, D360A)); test: as above; conditions: protein: recombinant; tags: N-terminal 6xHis-TEV, cleaved (as WT); chain copies: 2
T2 sequence: T1 sequence with A202N, D360A

B1: SPbeta operator WT 45 bp (dsDNA)
DNA 1: GTTGATCACTAGATGTTATTAAAACCTAATATTTAAGTGATGGCC
DNA 2: GGCCATCACTTAAATATTAGGTTTTAATAACATCTAGTGATCAAC
[1]
  binding result: binds
[2]
  binding result: no binding
